Experimental data published in article PMC10540217, “Native Semisynthesis of Isopeptide-Linked Substrates for Specificity Analysis of Deubiquitinases and Ubl Proteases” (Journal of the American Chemical Society, 2023).

Target: SUMO2-KG-TAMRA (human, UniProt P61956 1-95, C-terminal glycine linked by an isopeptide bond to the lysine side chain of the KG-TAMRA peptide)
Experiment: cell-based or functional assay

Sequence of SUMO2-KG-TAMRA (P61956 whole entry): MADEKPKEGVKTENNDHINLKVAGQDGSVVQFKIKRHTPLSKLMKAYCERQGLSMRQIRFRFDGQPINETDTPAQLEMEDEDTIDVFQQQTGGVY

B1: USPL1 catalytic domain (enzyme, human, UniProt Q5W0Q7 227-500, looked up)
chain: VQWKNAYALCWLDCILSALVHSEELKNTVTGLCSKEESIFWRLLTKYNQANTLLYTSQLSGVKDGDCKKLTSEIFAEIETCLNEVRDEIFISLQPQLRCTLGDMESPVFAFPLLLKLETHIEKLFLYSFSWDFECSQCGHQYQNRHMKSLVTFTNVIPEWHPLNAAHFGPCNNCNSKSQIRKMVLEKVSPIFMLHFVEGLPQNDLQHYAFHFEGCLYQITSVIQYRANNHFITWILDADGSWLECDDLKGPCSERHKKFEVPASEIHIVIWERK
With B1 the “catalytic efficiency in the fluorescence-polarization cleavage assay, SUMO2-KG-TAMRA against SUMO1-KG-TAMRA” value was roughly 25 fold.
